These results are taken from the RNAGym collection of RNA variant scans (doi:10.1073/pnas.2313332121).

This sample holds only a part of the variants without activity.

B1: TPR 5TU (parent)
chain: GGAUCUUCUCGAUCUAACAAAAAAGACAAAUCUGCCACAAAGCUUGAGAGCAUCUUCGGAUGCAGAGGCGGCAGCCUUCGGUGGCGCGAUAGCGCCAACGUUCUCAACUAUGACACGCAAAACGCGUGCUCCGUUGAAUGGAGUUUAUCAUG

Variants of B1 are the subject of this series. The experiment in a line: polymerase ribozyme fitness, log enrichment relative to wild type (log ratio); higher = more active; in vitro selection for triplet polymerase activity. The essentials:
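Each subunit of a heterodimeric triplet polymerase ribozyme was mutagenized into a library by PCR, transcribed, and subjected to one round of in vitro selection, run in triplicate. Libraries were annealed with a biotinylated primer, the partner subunit and triplets, incubated frozen at −7 °C, and extended constructs were gel-excised, captured on streptavidin beads and recovered by RT-PCR. Input and output libraries were sequenced on Illumina, keeping genotypes with ≥10 input reads and ≥1 read per output. Fitness is log base 2 of genotype enrichment divided by wild-type enrichment, from inverse-variance-weighted replicate averages.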
GGAUCUUCUCGAUCUAACAAAAAAGACAAAUCUGCCACAAAGCUUGAGAGCAUCUUUGGAUGCAGAGGCGGCAGCCUUAGGUGGCGCGAUAGCGCCAACGUUCUCAACUCUGACACGCAAAACGCGUGCUCCGUUGAAUGGAGUUUAUCAUG: the “polymerase ribozyme fitness (log ratio)” value was at most -4.2.

In the case of GGAUCUUCUCGAUCUAACAAAAAAGACAAAUCUGCCACAAAGCUUGAGAGCAUCUUUGGAUGCAGAGGCGGCAGCCUUCGGUGGUGCGAUAGCGCCAACGUACUCAACUAUGAAACGCAAAACGCGUGCUCCGUUGAAUGGAGUUUAUCAUG, the “polymerase ribozyme fitness (log ratio)” value was -3.9.

As for GGAUCUUCUCGAUCUAACAAAAAAGACAAAUCUGCCACAAAGCUUGAGAGCAUCUUUGGAUGCAGAGGCGGCAGACUUCGGUGGCGCCAUAGCGCCAACGUUCUCAACUAUGACACGCAAAACGCGUGCUCCUUUGAAUGGAGUUUAUCAUG, the “polymerase ribozyme fitness (log ratio)” value was at most -4.2.

With GGAUCUUCUCGAUCUAACAAAAAAGACAAAUCUGCCACAAAGCUUGAGAGCAUCUUGUGAUGCAGAGGCGGCAGCCUUCGGUGGCGCGAUAGAGCCAACGUUCUCAACUAUGACACGCAAAACGCGUGCUCCGUUGAAUGGAGUUUAUCAUG, the “polymerase ribozyme fitness (log ratio)” value is -1.39.

GGAUCUUCUCGAUCUAACAAAAAAGACAAAUCUGCCACAAAGCUUGAGAGCAUCUUGGGAUGCAGAGGCGGCAGCCUUCGGUAGCGCGAUAGCGCCAACGUUCUCAACUAUGACACGCAAAACUCGUGCUCCGUUGAAUGAAGUUUAUCAUG: the “polymerase ribozyme fitness (log ratio)” value was -1.22.

For GGAUCUUCUCGAUCUAACAAAAAAGACAAAUCUGCCACAAAGCUUGAGAGCAUCUUGGGAUGCAGAGGCGUGAGCCUUCGGUGUCGCGAUAGCGCCAACGUUCUCAACUAUGACACGCAAAACGCGUGCUCCUUUGUAUGGAGUUUAUCAUG, the “polymerase ribozyme fitness (log ratio)” value was at most -4.2.

As for GGAUCUUCUCGAUCUAACAAAAAAGACAAAUCUGCCACAAAGCUUGAGAGCAUCUUUGGAUGCAGAGGCGGCAGUCUUCGGUGGCGCGAUAGCGCCAACGUUCUCAACUAUGACACGCAAAAGGCGUGCUCCGUUGAAUGGAGCUUAUCAUG, the “polymerase ribozyme fitness (log ratio)” value was -0.394.

As for GGAUCUUCUCGAUCUAACAAAAAAGACAAAUCUGCCACAAAGCUUGAGAGCAUCUUUGGAUGCAGAGGCGGCAGCCUUCGGUGGCGCGAUAGCGGCAACGUUCUCAACUAUGACACGCAGAACGCGUGCUCCGUUGAAUGGAAUUUAUCAUG, the “polymerase ribozyme fitness (log ratio)” value is -2.18.

With GGAUCUUCUCGAUCUAACAAAAAAGACAAAUCUGCCACAAAGCUUGAGAGCAUCUUUGGCUGCAGAGGCGGCAGCCUUCGGUGGCACGAUAGCGCCAACGUUCUGAACUAUGACACGCAAAACGCGUGCUCCGUUGAAUGGAGUUUAUCAUG, the “polymerase ribozyme fitness (log ratio)” value was at most -4.2.

For GGAUCUUCUCGAUCUAACAAAAAAGACAAAUCUGCCACAAAGCUUGAGAGCAUCUUUGGAUGCAGAGGCGGCAGCGUUCGGUGGCGCGAUAGCGCCAACGUUCUCAACUAUGACCCGCAAAACGCGUGCUCCGUUGAAUGGAGUUUAUCGUG, the “polymerase ribozyme fitness (log ratio)” value is at most -4.2.

For GGAUCUUCUCGAUCUAACAAAAAAGACAAAUCUGCCACAAAGCUUGAGAGCAUCUUGGGAUGCAGAGGCGGCAGCCUUCGUUGGGGCGAUAGCGCUAACGUUCUCAACUAUGACACGCAAAACGCGUGCUCCGAUGAAUGGAGUUUAUCAUG, the “polymerase ribozyme fitness (log ratio)” value is -4.03.

For GGAUCUUCUCGAUCUAACAAAAAAGACAAAUCUGCCACAAAGCUUGAGAGCAUCUUGGGAUGCAGAGGCGGCAGCCUUCGGUGGCGCGAUAGCCCCAACGUUCUCAACUAUGAGACGAAAAACGCGUGCUCCGUUGAAUGGAGUUUAUCAUG, the “polymerase ribozyme fitness (log ratio)” value is at most -4.2.

Regarding GGAUCUUCUCGAUCUAACAAAAAAGACAAAUCUGCCACAAAGCUUGAGAGCAUCUUGGGAUGCAGAGGCGGCAGCCUUCGGUGGCGCUAUAGCACCAACGUUCUCAACUAUGACACGCAAAACGCGUGCUCCGUUGAAUGGAGUUUAUCAUG, the “polymerase ribozyme fitness (log ratio)” value was at most -4.2.

As for GGAUCUUCUCGAUCUAACAAAAAAGACAAAUCUGCCACAAAGCUUGAGAGCAUCUUUGGAUGCAGAGGCGGCAGCCUUCGGUGGCGGUAUAGCGGCAACGUUCUCAACUAUGACAUGCAAAAAGCGUGCUCCGCUGAAUGGAGUUUAUCAUG, the “polymerase ribozyme fitness (log ratio)” value was at most -4.2.

GGAUCUUCUCGAUCUAACAAAAAAGACAAAUCUGCCACAAAGCUUGAGAGCAUCUUGGGAUGCAGAGGCGGCAGCCUUCGGUGGCGCGAUAGCGCCAACGAUCUCAACUAUGACACGCAAAACGCGUGCUCCGUUGAAUGGAGUUUAUCAUG: the “polymerase ribozyme fitness (log ratio)” value is 0.403.

With GGAUCUUCUCGAUCUAACAAAAAAGACAAAUCUGCCACAAAGCUUGAGAGCAUCUUGGGAUGCAGAGGCAGCAGCCUUCGGUGGCGUGAUAGCGCCAACGUUCUCAACUAUGACACGCAAAAAGCGUGCUCCGUUGAAUGGAGUUUAUCAUG, the “polymerase ribozyme fitness (log ratio)” value was at most -4.2.

Turning to GGAUCUUCUCGAUCUAACAAAAAAGACAAAUCUGCCACAAAGCUUGAGAGCAUCUUGGGAUGCAGAGGCGGCAGCCUUCGGCGGCGCGAUAGAGUCAACGUUCUCAACUAUGACAUGCAAAACGCGUGCUCCGUUGAAUGGAGUUUAUCAUG, the “polymerase ribozyme fitness (log ratio)” value is -3.34.

Consider GGAUCUUCUCGAUCUAACAAAAAAGACAAAUCUGCCACAAAGCUUGAGAGCAUCUUGGGAUGCAGAGGCGGCAGCCUUCGGAUGCGCGAUAGCGCCAACGUUCUCAACUAUGACACGCAAAACGCGUGCUCCGUUGAAUGUAGUUUAUCAUG, for which the “polymerase ribozyme fitness (log ratio)” value is -1.49.

In the case of GGAUCUUCUCGAUCUAACAAAAAAGACAAAUCUGCCACAAAGCUUGAGAGCAUCUUUGGAUGCAGAGGCGGCAGCUUUCGGUGGCGCGAUAGCGCCAGCGUUCUCAACUAUGACACGCAAAACGCGUGCUCCGUUGAAUGGAGUUUAUCAUG, the “polymerase ribozyme fitness (log ratio)” value was -0.421.
